Laboratory results reported in paper PMC9106292 (Science Advances, 2022).
Where a chain is given by its changes, count along the chain named. Numbers in names are those of the source. Each block holds one binder with its values, some of them ahead of it.

Assays:
[1] = target: ASC-mCherry (full-length human ASC, TEV protease cleavage site, mCherry, C-terminal hexa-histidine tag) (human, UniProt Q9ULZ3 1-195); test: negative-stain EM
cryo-EM structure = target: the molecule itself; test: cryo-EM structure
negative-stain EM = target: the molecule itself; test: negative-stain EM

Chain of ASC-mCherry (full-length human ASC, TEV protease cleavage site, mCherry, C-terminal hexa-histidine tag) (Q9ULZ3 whole entry): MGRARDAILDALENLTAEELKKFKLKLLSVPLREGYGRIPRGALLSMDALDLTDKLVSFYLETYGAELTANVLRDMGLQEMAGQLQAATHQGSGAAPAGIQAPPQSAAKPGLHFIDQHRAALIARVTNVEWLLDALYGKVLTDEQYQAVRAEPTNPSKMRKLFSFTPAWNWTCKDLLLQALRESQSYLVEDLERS

- binding result [1]: binds
B1: human NLRP3^PYD (residues 3 to 110; C108S) (domain or fragment)
chain: MASTRCKLARYLEDLEDVDLKKFKMHLEDYPPQKGCIPLPRGQTEKADHVDLATLMIDFNGEEKAWAMAVWIFAAINRRDLYEKAKRDEPKWGSDNARVSNPTVISQE
- binding result (cryo-EM structure): binds

B2: NLRP3^PYD (residues 3 to 110; C108S) CAPS mutant D21H (domain or fragment)
chain: B1 chain with D19H
- binding result (negative-stain EM): binds

B3: NLRP3^PYD (residues 3 to 110; C108S) CAPS mutant H51R (domain or fragment)
chain: B1 chain with H49R
- binding result (negative-stain EM): binds

B4: NLRP3^PYD (residues 3 to 110; C108S) CAPS mutant A77V (domain or fragment)
chain: B1 chain with A75V
- binding result (negative-stain EM): binds
